These results are taken from the DeepSol protein solubility set.

This data set is described as follows: soluble on expression in E. coli; label from the status in PepcDB or PDB records.
On to “MTTARPAKARNEGQWALGHREPLNANEELKKAGNPLDVRERIENIYAKQGFDSIDKTDLRGRFRWWGLYTQREQGYDGTWTGDDNIDKLEAKYFMMRVRCDGGALSAAALRTLGQISTEFARDTADISDRQNVQYHWIEVENVPEIWRRLDDVGLQTTEACGDCPRVVLGSPLAGESLDEVLDPTWAIEEIVRRYIGKPDFADLPRKYKTAISGLQDVAHEINDVAFIGVNHPEHGPGLDLWVGGGLSTNPMLAQRVGAWVPLGEVPEVWAAVTSVFRDYGYRRLRAKARLKFLIKDWGIAKFREVLETEYLKRPLIDGPAPEPVKHPIDHVGVQRLKNGLNAVGVAPIAGRVSGTILTAVADLMARAGSDRIRFTPYQKLVILDIPDALLDDLIAGLDALGLQSRPSHWRRNLMACSGIEFCKLSFAETRVRAQHLVPELERRLEDINSQLDVPITVNINGCPNSCARIQIADIGFKGQMIDDGHGGSVEGFQVHLGGHLGLDAGFGRKLRQHKVTSDELGDYIDRVVRNFVKHRSEGERFAQWVIRAEEDDLR”, for which the “soluble on expression in E. coli” value was “soluble”. With “MGSDKIHHHHHHMSEATLLSYTKKLLASPPQLSSTDLHDALLVILSLLQKCDTNSDESLSIYTKVSSFLTALRVTKLDHKAEYIAEAAKAVLRHSDLVDLPLPKKDELHPEDGPVILDIVGTGGDGQNTFNVSTSAAIVASGIQGLKICKHGGKASTSNSGAGDLIGTLGCDMFKVNSSTVPKLWPDNTFMFLLAPFFHHGMGHVSKIRKFLGIPTVFNVLGPLLHPVSHVNKRILGVYSKELAPEYAKAAALVYPGSETFIVWGHVGLDEVSPIGKTTVWHIDPTSSELKLKTFQLEPSMFGLEEHELSKCASYGPKENARILKEEVLSGKYHLGDNNPIYDYILMNTAVLYCLSQGHQNWKEGIIKAEESIHSGNALRSLEHFIDSVSSL” the entry was “not soluble”; with “MGSDKIHHHHHHMQLRALMYFDELVRTNSMRAAAENLNVAPTAVSRQIENLEYYFGSPLVERSSRGVKLTAAGELLAARAGKTLRELDHVHRLIDDLKGLQRGRVTVYANGATVANLLAPVLAQFSLKYPKLRFEVHITSARQAMEALGAAEADLVVSLFAPKLSGVKVRSRTRISYDVIFPAGHALAAQPEVSLKELAGMPLALPDKSFAARQAFDTLFADAGIELDPVFITSSLEMLKELVLGNAAATLLPALSVAREIRSGQMVAVPLAGKKGIHTQIDLCVAPDRQLSFAASKLADFIERFMREATAG”, “not soluble”; with “MSLKVYVVKKGYRPGIYHSWPEAEEQVKGFPGAEYKSFSNIMEALDYQQMDPEDALKALQGAEDKLQAAIAKVRQGGSKKKQAESQKEFAASSKYAAHIFTDGGCRNNGTHKGGHVQADDKAAWAYLIEYGGQKLSASGGRFGATNNEMEMTAFLESLKKLEELGLNDQPLLFSLDSQYVIKAVSDNDQGPAWIKGWQRRGWKKADGSPVANRELWQEIAKEMAKFAQPEFEWVKGHANSAGNNFVDGLLNKYMDQEGHHHHHH”, “soluble”. With “MNTLGLYQSDWSKAPPHAHAYHVKTTREQGHYHLIEGFTQPANGSNTDQHTHYYTGITSFENGHFHRYYGISGPAIPLADGTHYHEIEETTYLAYNEPIEIQYGGVVYDPGDDRRKTHRHTLKGKTREIVGNEPLGR” the entry was “soluble”; with “MGSDKIHHHHHHMIEVQKQIDLDLELDIYKKLLEDNILFFDIETTGFDKEKEKVVLISGGWFLQDKKFVIKQYFAESLDEEVQVLKAFKEDVTKFNSWCSYNGKAFDEPFIKKRMNINNIEFTPPREHIDLYRIIRPYYKQLGMERCNLKSVEKYLGIHRADKIDGGISVELYYNFLDTKDERLRYVIMLHNYEDVLNLPSIFKLTYDIEKNDTLKREGGITKKQLDYLRFLMKKNNIQVTDDLKKISKKSASRIIDSILRGNIDIDKFNAIIKDSY”, “not soluble”; with “RPQNTNSWQKDSIEGIDIMLAMDVSGSMQAMDFKPNRLEAAKDVAISFINNRPNDNIGMVTFAGESFTQCPLTTDHTVLLNMVQDLQ”, “soluble”. With “GSHMSGEDAEVRAVSEDVSNGSSGSPSPGDTLPWNLGKTQRSRRSGGGAGSNGSVLDPAERAVIRIADERDRVQKKTFTKWVNKHLIKAQRHISDLYEDLRDGHNLISLLEVLSGDSLPREKGRMRFHKLQNVQIALDYLRHRQVKLVNIRNDDIADGNPKLTLGLIWTIILHFQISDIQVSGQSEDMTAKEKLLLWSQRMVEGYQGLRCDNFTSSWRDGRLFNAIIHRHKPLLIDMNKVYRQTNLENLDQAFSVAERDLGVTRLLDPEDVDVPQPDEKSIITYVSSLYDAMPRVP” the entry was “soluble”; with “QDGGYSAREFMIFSSQPAEIADKIMKDLERGSTYINIEGAYKRTPGKAVYVVVDPSEVRQVREIIEEIDPKAFVSIRIVSEQLGEGFTYLRKKRSIFGR”, “not soluble”. In the case of “MILDADIKTQLSQYLQLMENDILLKVSAGNDDVSKDMLALVDELATMSSKITVEKVELERTPSFSVNRPGEDTGVVFAGIPLGHEFTSLVLALLQVSGRAPKVEQKLIDQIKNIQGEYHFESYISLSCHNCPDVVQALNVMSVLNSGITHTMIDGAAFKEEVESKDIMAVPTVFLNGESFGSGRMTLEEILAKMGNGPDASELSDKDPYDVLVVGGGPAGASAAIYAARKGIRTGIVAERFGGQVMDTMGIENFISVKRTEGPKLVASLEEHVKEYDIDVMNLQRAKRLEKKELIEVELENGAILKSKSVIVSTGARWRNVGVPGEAEFKNKGVAYCPHCDGPLFTGKDVAVIGGGNSGIEAAIDLAGIVKHVTVLEFMPELKADAVLQERLNSLPNVTVLKNVQTKEITGTDKVNGISYIDRETEEVHHVELQGVFVQIGLVPNTDWLGETVERVRGEIVTDKHGATNVPGVFAAGDCTNNPYKQIIISMGSGANAALGAFDYLIRN”, the “soluble on expression in E. coli” value is “not soluble”. With “MQANSEEYCELCGSQIRGKGITVSYEGSIITVCNSCYDRIRKHAVIVKADSKKSETRKKATLKPPKMENAELEIVTDYYKIIKTAREQLGISQQQLAQKLKVSENIVKRFESGKLKPTISQARQLEKILGIKLVTPLENNEESEKEFDDTGLTLGDVVNIKEGKK” the entry was “not soluble”; with “MARPLEQAVAAIVCTFQEYAGRCGDKYKLCQAELKELLQKELATWTPTEFRECDYNKFMSVLDTNKDCEVDFVEYVRSLACLCLYCHEYFKDCPSEPPCSQ”, “soluble”; with “MAHHHHHHMPRDTHVLRFKVLTVECAALPDGQQYTVMYHRGNSNRSTPCYTAQGGVINFASMPEGAAVVHFKAGHGGGRFAPKYIRFMIEEYTRGMPRRLVGETEADCTQVLKDYGASGSGILTVVFRLYGTTAKMRIAVLVYPEHAPPLSFDGLIDPSEVAAPLPTQAVKVMSRGEAMMILMGLETLLERRRAMKAEGQSLPQSREEKKLAELEKRRKALVGSEGLATEVIKTRCEEVVAVQYTALARKHRNNFIGQTAAYLREMAMLAGEDFIGDDGDSSGDTVLEQLNRVNRSIEEVEMQVKKLEEEQAALRRIQHKVDVMAELTVSLDKVAALQQKMQVLKESRTALTEAMKKQAAKKNTPLAREVTAINTRIAALNAEQQQMAPRIQHMVAVAASHVVKWARSKNPPELDTKSCIDSLHETGGNARNPVDDLFSDAGKPKTSKEQSMLDDVQRKQVVEALKGLETTTAPLSTRSPTSASSSSGHRTPRDLFADAGLPSMGDFSDTKPKEEETATKRKGDTSTTPLHEDPLKPSGLGVDMFSAKPAPAAASNVPAGLPSMNDFMRSSTASRQQSAQPTFDFGSILQTSSVSPQMGGGFVLEPQPSEAAASSFAAAAPSAVSGAYQTKDYPYYDEMDDFTVPPDAADSKNYGAVEITGGIFSFQDDTSSPAYVAPRPTFDFGPSSGGDDRPSGVGVTVSPAETFSFGGGAADELSTNNPRNSSDNPYTGITNLPTYNFSS”, “soluble”.

Consider “MASLWRAVIGGQNNNSEDYGGVEFWSNPERTGWLTKQGEYIKTWRRRWFVLKQGKLFWFKDSDVTRVSRPRGVVPVESCLTAKGAEDVLNKQNAFELSTRNETMYFIADSEKEKEDWINSIGRSIVQNSRSVTDSEIVDYDNKH”, for which the “soluble on expression in E. coli” value is “soluble”.

As for “MRKPIEHTADIAYEISGNSYEELLEEARNILLEEEGIVLDTEEKEKMYPLEETEDAFFDTVNDWILEISKGWAPWRIKREGNELKVTFRKIRKKEGTEIKALTYHLLKFERDGDVLKTKVVFDT”, the “soluble on expression in E. coli” value is “not soluble”. With “AWVDQTPRTATKETGESLTINCVLRDASFELKDTGWYRTKLGSTNEQSISIGGRYVETVNKGSKSFSLRISDLRVEDSGTYKCQAFYSLLLRDYNYSLLFRGEKGAGTALTVKAAA” the entry was “soluble”; with “MTQQLVKKGQQISLKIKRLGINGEGIGYYKKLIIFVPGALPKEEVTATITNVTPKFAEGTLQSVKKAAKDRVVPPCPVYETCGGCQLQHLAYKAQLDFKKDLLKQALNKFKPANYQNYELRKTIGMDNPWNYRNKAQFQLRQIDGQVEAGLYQADSHQLVPIDNCLVQQPATTKVMNTLVDLLNDFQLPIYDERKNSGIFRTLMVRVGIQTGEVQVVFITQSQKFPQKEKMVRAINEQLPEVVSIMQNVQNKKTSLVMGDDTLHLWGKESIEEHINDVVFDLSPRAFFQLNPEQTEVLYNEGIKALDLQPNETVVDAYCGVGTIGLSLAKQAHQVRGMDTIPAAIDDARFNAKRLGVTNTHYAVGTAEDLLPKWFKEGFKPDAIVVDPPRTGLDRKLLTALLKQPPKKMVYISCNVSTLARDLVQLAKVYQVDYLQSVDMFPQTARCEVVVKLTRK”, “not soluble”; with “MKPLSSAIAAALILFSAQGVAEQTTQPVVTSCANVVVVPPSQEHPPFDLNHMGTGSDKSDALGVPYYNQHAM”, “soluble”. With “GSSEDKITVHFINRDGETLTTKGKIGDSLLDVVVQNNLDIDGFGACEGTLACSTCHLIFEQHIFEKLEAITDEENDMLDLAYGLTDRSRLGCQICLTKAMDNMTVRVPDAVSDARESIDMGMNSSKIE” the entry was “soluble”; with “MGSDKIHHHHHHMRHLKAFYVFHITAESSSYSQAAEKLHITHGAVSKQIKLLENHLSQILFYKQGRGMCLTQEGELLKRYTDIAFNTLDSGVKQLTRESHHYLEVSCEPTLTMRWLMPRLASFFQLTGIDVRLSTAGGPVKLAESGLSLAIRRDDFHIPPEYNKHNLVSEWAGPVFSPEYWCQIQQNWGDIVLLHSDSRPSAWSDWSQRSGHNFSTNKSKSFEHFYFCLQAAVDGLGGAIGSYPLIVDDLTSGRLVAPFGFIPSGHHYVLLSHTEKLVNNELSFFNWLEDTLSLCQPKTAKAAKPV”, “not soluble”; with “MYEAGTVEWRLTMVYLEQFRFPDAEVEFDFFLRQKRTCYDTYYPFQILSKHRFEQIDFEPVTILYGGNGTGKSTVLNIIAQKLHLLREAPFNQSSFYEDYLELCSFESAAHLPKDSRIITSDDVFDYMLNIRNLNEGIDRKREMLFEEYLDTKFAKFRMKSLDDYEQLKRVNNARRKTQSQFIRSELMDNVREYSNGESAFLYFTEKVTENALFLLDEPENSLSPAKQQELVKFIEDSARFFGCQFVIATHSPFVLAIRGAKIYDLDEEPVDVKRWTELENVRAYYDFFKKHASEF”, “not soluble”. With “GPGSMLRRQCVPLRVVAAGLRLNSSSSGPSKTNDGGIPNATGMDNAPGLYAEKPSSTYCEEKYPNKVEEVGSLKPPTYDVPHGRSDNIKTPEFNTSLGKFDQAPYFTGGPPAMRYHGYKRDPAVEGVDYRDVLPKTPIEDHHPHMEFLSVTGRREGSTFLLANAGVNWELKAAAMSLYRTILKSLPMIKHYYWLLVPLPAMKDKIRLRFLQNQHTKDPDAIRHLLHNGWMEFQESIMFRRPR” the entry was “not soluble”.
